Results: a protein production outcome set (Wang et al. 2014)

Test: label from the status in PepcDB records

Sequence	protein production
PNEKFCFEGFLPQKKGRMTKLKSLVDEHRTMVFYESPHRLLKTLTQFAEYFGPERQVSVSREISKIHEETVRGTLSELIEHFTATDPRGEIVIVLAGIDD	not failed
MNWVAPIKDQETLKNFGETLKQVDYKYYIMFELGVGTGLQLQDILAFKNKDVTGKKEIEVTIGTRNMKNVFTVPEELQQIINEYTKGKDPEAYLILGHSSSNKPVSREQAYRVLRSAGHKIGLNSIGAQTMRKTYAWNYYKETGDIYHLQKLFNHASPSITYRFIGEKPNIEVFLKKMTPQENERSRYLLYLNDNGKKKLNKIIDILTGIRDNFDSPANNDAFYGKVDCLLQELEALMENYENTK	failed
MSDSKEITKVIVTMVVISAVAAALLALTYTPTQAQLKLLQAEQQKEAMKEILPQAADFEPVTGSEVDDDGNPVVLYYKGVDSSGNVVGYVVERNQVGAQGMIQLLAGISSDFSTITGFQVMKHSETPGLGALITTPEFQGQFVDLPVADTSLTKNGGQVDAISGATISSQAVVDALHSAVDYVSAQEG	failed
MSNSINLGRVAVIDIGKTNAKVVVIDTGSGEEIAAEKRTNPVLRDGPYPHYDVEMLWNFILAALQRFGHEPGFDAISITTHGASAALLDGTGDLAMPVLDYEHIYAEPVQQAYRGIRPDFAETGSPQLPAGLNLGAQIHFQKTNFPDDFARVRSIVTYPQYWAGRLTGVQATETTSLGCHTDLWNPRRKSFSSLVGRLGIEHLMAPVRSAFDVLGTIRPSLAQETGLSPDMPVYCGIHDSNASLLPHLLRREGDFSVVSTGTWVVNFAIGGKADALDPARDTLLNVDALGRPVPSSRFMGGREYEMLAQQFGAATPHDIEAALGGVIEKGMMLLPSVVSGSGPFPQSASRWIADSDATGAERHAAASLYLALMTEFCLSLVERRGPIVVEGPFAGNALYLKALAAFAATDVIAMEGSTGTSAGAALLTGIKPVAGRERHFTAEDIAGLTSYRTAWQNHLT	failed
MEITDVRLRRVETDGRMKAISSITIDGEFVIHDIRVIDGNEGLFVAMPSKRTPDGEFRDIAHPINSGTRAKIQEAVLAAYEVADEPAVNEESSADESVVEEN	failed
MNMNITYISIYKTSLPVLVSLLMEYLIGFTDTAYLGRVGETELAASAIAGTYYMIIYMIGFGFSIGAQILIAQYNGNQQYKEAGKILSQGILFLLIIAVIVILFSSIISPIILKSIIDSESVLQAVLQYLDWRIYGFFFSFTIIMFRAFYIGIIHTSALMLNSITMVAINVILNYILIFGALGIPVLGISGAAIASVISEAVAVIHFIIYTQKNVSSCKYGLKRRITIDCTILKKILSISIWMMLQHGLVFGSWFVFFITMEHFGERSLAITNIVRNISSFLFLFVQAFASVVSSLVGNLIGENKGNSILYVCKKVIFLCYMTILPIMVLFLFFPSSTLRIYSDNTVLVFEAIPTLKVMLTSYLIAVPTFVFFSAVSGIGHAVASLLIAFISLVVYIVYVETISHFSSSVPLLWTSEHIYFSCVFILSLYHIHHSWMSFINQDKKLTTNIS	failed
MSEFRPVPTTDREACQRILQYAFAPETGPVPPDPDGDWPPSLFDQRGLYDGGTLRAVCKLYFFDTTVRGAATTVGGLGAVATPPEHRGQGLAADLCRHALSAYRKADVGFVTLWPFSTPFYHRLGWGTANTYRRFDLPPSALPDPSTAGQLVRLDADDWERLRRVETAAAAGTALSLRRSEAWWRERTLADWDDDGVPYCYGYERDGELQGYVVYTVADDANNTLSVSNFAAVDEEARRALFAFLGHHGAQIERVTLQLPPDTDLFHRVDDPGAVDCTVEAGPMVRLTDVDYLERLDWPGGDLDCTLSVNDPLLDHNDGLFRLSVNGGTATVDPLPASDSKADVAVDIATLSQLAVGTHGVDAAERLAGLEMFDDSVRGPLADVFQPESVYLGEFF	failed
MSAQKQEKTNVFLDPSKNEAYFKKRVGMGESFDLGVRKVFILGHEVQLYYVNGLCDTQYIIHLLRELVHLNDKEKESGEVEDIVENRLLNQQVSKAETLDEAVDQVLSGLVAIIVEDAGFAFIIDVRSYPGRTPEEPDTEKVVRGARDGLVENIIVNTALIRRRIRDERLRYKMLHIGERSKTDICLCYLEDVADPDLVEVLKKEIEDVKIDGLPMSDKSVEEFLVGQGYNPFPLVRFTERADVAASHILEGHVIVIVDTSPSVIITPTTLFHHVQHAEEYRQTPAVGTFLRWVRFFGILASTFLLPLWLLFVIHPSLLPDNLSFIGLNKDTHIPIIMQIFLADLGVEFLRMAAIHTPTALSTAMGLIAAVLIGDIAINVGLFSPEVILYVSLSAIGAYTTPSYELSLANKMVKLFMLILVALFKVEGFVIGLTILTIVMTSIRSLRTPYLWPLLPFNGKAFWHVLVRTSVPGGKVRPSIVHPRNRSRQP	failed
MLEKELSFADLSISLSELYEAMGYADAVPDEAVEKEVRGVLGRVEAVTSPRFCFFISGGELDESKDSLSVGDTCFSIGKIITRQLRGSESFAFFAATAGTGFERFQHTLQQEGDMVKVYIADAIGSVIAEKTADCMEIALDEYIRDRGWRHTNRFSPGYCGWHVSEQKKLFPLFPSAEPCGIRLTDSGLMLPIKSVSGVIGLGDGVRKLEYTCGLCTYDRCYRRKQRGLEHHHHHH	not failed
MKPQVYHVDAFTSQPFRGNSAGVVFPADNLSEAQMQLIARELGHSETAFLLHSDDSDVRIRYFTPTVEVPICGHATVAAHYVRAKVLGLGNCTIWQTSLAGKHRVTIEKHNDDYRISLEQGTPGFEPPLEGETRAAIINALHLTEDDILPGLPIQVATTGHSKVMIPLKPEVDIDALSPDLNALTAISKKIGCNGFFPFQIRPGKNETDGRMFSPAIGIVEDPVTGNANGPMGAWLVHHNVLPHDGNVLRVKGHQGRALGRDGMIEVTVTIRDNQPEKVTISGTAVILFHAEWAIEL	not failed
MKHKGLIRSYEMEFAFLYRLSDLAVIVTFMLLLVLKDTNTSMDKDYVILSFVGGISFLFMAESGNLYRSWRTSSFREQMFIVCMSWLMTSALLFMVLYFSEVYPLFDRSILALWVTITPALLLAWRVTFRTVLAYLRKMGFNTRTAIIIGQTPHGITLANEIQNHTEHGVLFDGFYDERSSDRLPSSEYPIKGAVNQALERAKRGEVDYVYIAMPMHAKERIASILNQFSDTTANTYLIPDFFTYNLLHSRWDQIGQVQTLSVFDTPFAGVSSWIKRFEDILCSSIILVLISPILLAIAIGIKLTSKGPVIFKQHRYGLDGRKIEVWKFRSMTTMDQGPNIKQATKNDPRITPFGSFLRRTSLDELPQFINVLQGTMSIVGPRPHAVAHNEEYRQIVARYMLRHKVKPGITGWAQINGYRGETDTLDKMEKRVEFDLDYIHHWSVWMDIKIIFLTVFKGFTGSNAY	failed
MPNMGIEKLYVSQQLTDSAAGMTFTKPQYYKYVQELSLKPKVNSASAYAENRKVDQDTQFDSCDVSINLFQMTSSQRAFMLGQSLAGGGGAIGALNDKAPWITLLYKAPIKVDDTIYYRYGVIYKTQFQPPDDDYKTTEGKPDFSQVPKISGSAQPTEWSFKDGKLEKHPWEWHVDTCDPNCPENIDDTWFNSVSIPSLVTYGSLSLSASSPKDGATGISLDTKPSLTFNNPIMNATSILLYNVSDGATVNTTTSSDSSGKIITITPSTNLVANKNYVLVVQDVTDLYGQTLDTQLIRFTTATAASLEHHHHHH	not failed
SVSAGVQAVESILDREEIRRVILVGAGTGAGVALEIAKNQPRRVERLVLDSPLVTFDEKQLKGMSTALKMMPGFFFRKKNKKDLLQQVEEARTAVPMGFSEITMPTLIIRGSAAKAGIDSDLEKQIPSARATTIIGANWLTYTTHGRQTGAAIAEFLAQ	failed
MIEYIIGVIGLLLASVQDFRSREIEDYIWIVLAVFGILFAIYSAITLSNYSILINSISGFVICFILGYMMFLSGIGGGDGKILIGLGALVPKFQMPIYTSLGTLLNLNYIPNFPIMVFINGIFFMVFLPFVILFRNILNGARPKTGKEVILMFFGEKMKVKVAKEQKRLIMGQNDKINFFPASDDEDFSKYGDEEEIWVTPQIPLIIPITLSYLVTPIIGDRILDLLIPF	failed
MSLRPRVLLVEDSTSLAILYKQYVKDEPYDIFHVETGRDAIQFIERSKPQLIILDLKLPDMSGEDVLDWINQNDIPTSVIIATAHGSVDLAVNLIQKGAEDFLEKPINADRLKTSVALHLKRAKLEDLVEGHHHHHH	not failed
MFSQWVFLSVLALAVPSFAWAEDAVSDLAREQSKAEQGDKRGDELFAEFTRLRQAAETGEPQALFDFGAYFYQQQNYASAREWWGKAAAAGMVRAQIQLAMLYRDGDGGPQDKTEAARWFRKAAEQGDAAAQNEMGVLYWRGEGVDQDRVKAGTWFERAAASGSEDAETNLGWFYLDDSQGVYSATSDEEAALLDRYAGSREKAFQWFCKAATQGDARAQFKVGEAYWNGSGAGMNKLQARLWLEKAAQQQDADAIAWLESAANAAWYTRLENWIHAALDGELSGVADCSGAADRRHSGRGMEGAPSDPEAVEASAEDAQQAVEAASQ	failed
MDKKSKPDWAGESLLSNFVNLLIQTKPIYGVMKQQARQVLIKTAEKNGIPWRKNYEALQVSPAKKLLAAVTNPHVIYPDYYKVPFHAYTEGNLCWDAAFETESATYAMALRVWPQENLTWEAAHARLRGTFHDALETYAPQQVRDILDIGCSVGVSTLALHRYYQRRERYPVRTVGLDLSPYMLAVAKTRDVNSEISEWLHARAENTGLPDKSFDLVTIQFVTHELPGYVSQEIFAEAKRLLRPGGYIALVDNNPRSPVIQNLPPVLFTLMKSTEPWSDDYYTFDIEAALQAVGFAPPITVPSDPRHRTIIARKPD	failed
MLIKKNALSILKIVFPIAVLLFVIYQSKKELTNLSFKRTLMVINGLERTDLFMLVLIGLLAVAAMSLYDYVLKYSLRLSITNGKVFRVSWIANSFNNVLGFGGLAGVGLRMMFYKEHTKDHKALVKGIAWLTSSMLLGLSVFSIFVAARVLPVDEVIHEKPWLWAVVIGFALILPLSLAVSKIKDRKAGDEENADKVKNPIFAYIGASVVEWLMAGTRHLFCFVRYGHSCRYQVCVRGVRHCGDRRNDQPRAGRLRLV	failed
DISEELDYERGRYLDAMIDNHKYTGKARAIIYGQPELALALAKVCFENGVNVKLIALGAKNKILEEALKEEIKSQREEVLVLDDTDFDTIEKYAKEFNVNLFIGNSDGRRMASRLGIEIIRVGFPIHDRV	failed
MEILVVAVGILVDRLTKIWALDKLKKVQDIPIIKNFFDLTYVENRGAAWGIFSGKTLVLSAVTLLVLSAIIVYMIKYRPKSKLARISLSLVISGALGNLYDRVFYKYVVDLFSLHYKDIYYYPVFNVADICVVVGTIMIAIFIVLKDDKKDGKV	failed
MPYLAGCGAVLYVDVMPEGTLLTRGVSASPTRCGRTPPGGRGVWLLCATIFYWAVARFGMALFSLAPENITPLWLASGVGLIMCLEAGLSAVPCIALASAVANFPGLSASGGESPLLYAVLTGTADGLSAGLLAALGSRVLQGGITSVLDLLRGVVLVCLPATLIGGVAITLCLFTGGYVPRDVLCQMSFSLMAGDTLGVLLVFPLWRAWHVLPLPSRTELCWMAGVLCLCLLSIWSAFFVEGAAIHMLMPLLVLLSCNVRINGVMVVLFLTVIAVFIATAHRVGPFHMPTQGEAVMLLVSFAASTTLTTLGLSLYRHLLAQAGARATMWEQRAGIDPLTGLCNRARFDEVLLAELQRLQRQDSPLSLMMFDADHFKPYNDMYGHVAGDACLKRVAGVLRAVAHRASDVVARYGGEEFVCILPGTDRDSAYALAEKVRQGVRALAIPHVGSPVAGVLTVSAGVVTVHGCDGLDPQEVVAQVDRALYQAKGAGRDRVMVAKGAAKEGMQYGECALSGVQRLVWSEDYACGEPRIDASHRALLAKADSIMSSLGGADGLNARRACILALVDAVRMHFREEERVLAAIGYPKAGEHAVIHEALLQRGASLVAAWERGGMSLDDVVITLVHGMVMRHMLDDDSAFFEHVQQWGAGGTQP	failed
MLQIADYIAENYRGKVVEVGIGRFTAVAELLARRGFEVFATDVVERRAPEGCRFYVDDVTKPNLKIYEGASLIYSLRPPPELFSAIVEVSRKVGADCLIKPLYGDYMEARIVNYKGAQFYLIRRENYD	failed
